Series [1] concerns the target Complement C1q (Homo sapiens, UniProt P02745;P02746;P02747 P02745:23-245,P02746:28-253,P02747:29-245). In words: filter; MgPBS, 37 C; still binds C1q on immune complexes; competed by SAP, beta-amyloid, CRP and A-chain 14-26 peptide. The note with it: tags: Quidel; chain copies: 6; label: 32P. As to the method: Individual cloned DNA was T7 transcribed with α-[^32P]-ATP and the full length [^32P]-2'-NH_2-RNA or 2'-F-RNA was gel-purified (as above). RNA was suspended at approximately 5,000 cpm per 30 µl sample (<10 pM), and aliquots were incubated with various concentrations of C1q, C3 or C5 in MgPBS for 10 minutes at 37° C. Samples were then filtered through nitrocellulose, the filters washed with buffer and dried under an infrared lamp, and counted with addition of scintillation fluid (Ecoscint A, National Diagnostics, Atlanta, Ga.). A background sample of RNA alone was run in parallel. […] Filters were washed and counted.
RNA ligand binding to C1q was also measured in the presence of immune-complexes, which would block the binding of ligands to C1q head-groups. Immune complexes (IC) were formed by mixing 620 µg BSA at equivalence with 1 ml of rabbit anti-BSA (Sigma, St. Louis, Mo.) plus PEG 8000 added to 1% final concentration, and then the samples were incubated overnight at 4° C. The IC were pelleted by microfugation at 12,000 rpm for 10 minutes, washed five times with PBS, and suspended in 1 ml of MgPBS. […] Samples were incubated for 30 minutes at room temperature, microfuged, and the pellets and supernatants counted.

Series [2] concerns the target Complement C5 (Homo sapiens, UniProt P01031;P01031 P01031:19-673,P01031:678-1676). Briefly: minimal structure from boundary analysis; called 38mer in text. The note with it: tags: Quidel. As to the method: A secondary structure for an inhibitory C5 Nucleic Acid Ligand as determined by current art (Green et al. (1995) Chem & Biol. 2:683) is shown in FIG. 3 (SEQ ID NO:75). The smallest structure which would bind C5 is determined by: a) radiolabeling the C5 Nucleic Acid Ligand at both the 3' and the 5' end; b) treating the labeled Nucleic Acid Ligand by partial base-hydrolyzed to split a portion of the bonds between nucleotides; c) incubating the partially hydrolyzed Nucleic Acid Ligand with C5 protein and then eluting the bound Nucleic Acid Ligand; and d) analyzing the eluted Nucleic Acid Ligand on gels. In this procedure, the Nucleic Acid Ligand initially binds to C5 as bases are removed from the Nucleic Acid Ligand. When an essential base is removed, the Nucleic Acid Ligand is no longer able to bind. This first essential base determines the boundary of the minimal Nucleic Acid Ligand structure. For a human C5 Nucleic Acid Ligand the smallest binding structure is believed to comprise the sequence with proposed base-pairing pattern shown in FIG. 3.

The text below walks through data of US6140490, “High affinity nucleic acid ligands of complement system proteins” (NeXstar Pharmaceuticals, Inc.).

Sequence of Complement C5 (P01031 19-673, chain 1 of 2): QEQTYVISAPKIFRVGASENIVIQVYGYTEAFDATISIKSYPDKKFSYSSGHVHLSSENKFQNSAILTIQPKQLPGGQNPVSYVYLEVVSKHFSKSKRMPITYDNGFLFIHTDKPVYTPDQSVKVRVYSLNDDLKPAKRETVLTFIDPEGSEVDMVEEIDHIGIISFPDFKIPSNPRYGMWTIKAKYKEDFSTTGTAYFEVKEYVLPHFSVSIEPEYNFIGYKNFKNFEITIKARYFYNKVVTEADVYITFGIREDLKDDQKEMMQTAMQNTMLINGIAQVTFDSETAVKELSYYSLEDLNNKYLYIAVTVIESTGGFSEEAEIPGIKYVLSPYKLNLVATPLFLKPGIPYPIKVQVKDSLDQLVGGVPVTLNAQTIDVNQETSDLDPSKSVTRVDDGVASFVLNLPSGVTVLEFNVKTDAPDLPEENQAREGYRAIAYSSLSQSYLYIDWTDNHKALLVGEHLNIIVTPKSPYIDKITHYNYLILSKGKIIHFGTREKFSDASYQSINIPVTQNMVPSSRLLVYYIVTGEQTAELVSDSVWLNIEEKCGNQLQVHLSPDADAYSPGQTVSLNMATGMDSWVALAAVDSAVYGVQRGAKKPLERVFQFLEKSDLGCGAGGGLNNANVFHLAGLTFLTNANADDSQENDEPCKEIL
Sequence of Complement C5 (P01031 678-1676, chain 2 of 2): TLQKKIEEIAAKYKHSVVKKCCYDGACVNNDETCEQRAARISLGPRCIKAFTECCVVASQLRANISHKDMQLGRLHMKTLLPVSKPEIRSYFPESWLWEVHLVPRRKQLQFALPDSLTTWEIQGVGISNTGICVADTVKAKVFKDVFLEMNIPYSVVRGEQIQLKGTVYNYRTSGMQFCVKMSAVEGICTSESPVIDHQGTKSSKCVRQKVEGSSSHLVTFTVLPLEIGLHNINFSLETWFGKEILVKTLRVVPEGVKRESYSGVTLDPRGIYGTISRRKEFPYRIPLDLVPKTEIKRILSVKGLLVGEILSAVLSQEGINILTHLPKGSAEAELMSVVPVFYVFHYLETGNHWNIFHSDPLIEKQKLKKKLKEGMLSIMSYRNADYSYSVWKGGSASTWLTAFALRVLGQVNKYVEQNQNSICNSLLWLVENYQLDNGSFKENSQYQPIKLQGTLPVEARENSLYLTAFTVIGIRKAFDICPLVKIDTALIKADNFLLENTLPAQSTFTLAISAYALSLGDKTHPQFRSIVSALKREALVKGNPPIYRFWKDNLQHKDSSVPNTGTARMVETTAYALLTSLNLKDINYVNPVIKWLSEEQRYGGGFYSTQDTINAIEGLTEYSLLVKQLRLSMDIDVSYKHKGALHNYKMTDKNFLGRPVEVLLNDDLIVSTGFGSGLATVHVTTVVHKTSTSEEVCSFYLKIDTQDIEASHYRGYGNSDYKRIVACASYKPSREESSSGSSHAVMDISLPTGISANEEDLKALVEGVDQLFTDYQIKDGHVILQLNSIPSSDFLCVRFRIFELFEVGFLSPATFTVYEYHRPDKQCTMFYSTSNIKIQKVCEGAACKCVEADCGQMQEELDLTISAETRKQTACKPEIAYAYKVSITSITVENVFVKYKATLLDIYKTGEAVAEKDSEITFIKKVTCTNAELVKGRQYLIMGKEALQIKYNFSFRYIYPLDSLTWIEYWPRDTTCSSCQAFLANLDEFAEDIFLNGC
Sequence of Complement C1q (P02745 23-245, chain 1 of 3): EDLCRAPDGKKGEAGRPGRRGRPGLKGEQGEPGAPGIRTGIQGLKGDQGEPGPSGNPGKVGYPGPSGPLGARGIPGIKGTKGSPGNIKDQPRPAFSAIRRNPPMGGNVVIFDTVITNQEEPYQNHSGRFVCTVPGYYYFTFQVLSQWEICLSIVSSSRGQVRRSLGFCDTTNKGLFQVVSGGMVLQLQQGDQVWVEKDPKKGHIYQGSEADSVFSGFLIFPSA
Sequence of Complement C1q (P02746 28-253, chain 2 of 3): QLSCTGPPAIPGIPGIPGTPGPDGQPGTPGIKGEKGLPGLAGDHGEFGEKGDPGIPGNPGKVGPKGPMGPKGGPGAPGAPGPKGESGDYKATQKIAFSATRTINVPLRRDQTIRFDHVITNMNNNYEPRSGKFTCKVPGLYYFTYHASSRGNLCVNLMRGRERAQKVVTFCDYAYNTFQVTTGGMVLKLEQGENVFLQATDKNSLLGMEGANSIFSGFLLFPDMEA
Sequence of Complement C1q (P02747 29-245, chain 3 of 3): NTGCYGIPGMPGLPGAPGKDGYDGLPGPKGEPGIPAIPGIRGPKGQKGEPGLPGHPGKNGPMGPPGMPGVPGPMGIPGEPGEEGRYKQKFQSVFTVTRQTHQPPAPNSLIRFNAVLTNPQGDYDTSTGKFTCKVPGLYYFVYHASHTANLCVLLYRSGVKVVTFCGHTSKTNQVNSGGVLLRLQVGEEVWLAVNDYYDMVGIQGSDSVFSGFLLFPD

B1: clone 50 (ssRNA)
RNA: GGGAGGACGAUGCGGGUGGAGUGGAGGUAUAACGGCCGGUAGCGCAUCCCACUCGGGUCUGCGGUAGACGACUCGCCCGA
modifications: 2'-NH2 C and U
B1 came in with a dissociation constant (Kd) in series [1] of 0.979 nM.

B2: truncated C5 ligand (FIG. 3) (ssRNA)
RNA: GACGAUGCGGUCUCAUGCGUCGAGUGUGAGUUUACCUUCGUC
modifications: 2'-F C and U
In the case of B2, the binding result in series [2] is given as “binds”.

Usually Kd stands for the equilibrium constant for the complex coming apart. Higher therefore signals weaker binding.
